# Results from publication PMC3195437 (Biochemical Journal, 2011).
# B1: rHhoBSA (recombinant, N-terminally truncated, proteolytically inactive HhoB of Synechocystis sp. PCC 6803, Ser258 replaced by alanine) (enzyme, UniProt P73940 51-416, looked up)
# chain: SLTPAPVESNYRSALPLTLPRSAQDDQELNFIARAVQKIGPAVVRIDSERTAVSQGGPMGDQPFFRRFFGEEMPPNPDPREQGTGSGFILSSDGEVLTNAHVVEGASTVKVTLKDGSVLEGKVMGIDTMTDVAVVKVEAENLPVVEIGQSDRLQPGEWAIAIGNPLGLDNTVTVGIISALGRSSSEVGVPDKRVRFIQTDAAINPGNAGGPLLNAKGEVIGVNTAIRADAQGLGFAIPIQTAQNVAENLFTKGKMEHPYLGIHMVTLTPEMTKQLRTSGELPAGVTADTGVLIIQVSPGSPAAQAGLAPGDIILEVGGMGVKTATDVQERVEVSQIGEPLAIAVKRGQKPQMMAVRPGPFPEDLGQ
# B2: rHtrASA (recombinant, N-terminally truncated, proteolytically inactive HtrA of Synechocystis sp. PCC 6803, Ser296 replaced by alanine) (enzyme, UniProt P73354 94-452, looked up)
# chain: SIAPANESLATNLQSRLSPREPSNFVVDVVESTGPAVVRINAQKTVKSQVPQAFNDPFLQRFFGSQMPPMPNERVQRGTGSGFIVSNDGKIFTNAHVVDGADEVTVTLKDGRSFPGRVMGSDPSTDVAVVKIEAGDLPTVALGDSDHLQVGEWAIAIGNPLGLDNTVTTGILSATGRRSADIGVPDKRVEFIQTDAAINPGNAGGPLLNADGQVIGMNTAIIQNAQGIGFAIPINKAQEIAQQLIATGKVEHAYLGIQMVTMTPELQSQIRQETGMNIPVDKGVVIMQVMPNSPAAIAKLEQGDVLQSLQGQPVENAEQVQSLVGKLAVGDEVELGILRNGQQQNLTVTIGALPSAPPQ
# Molecular target: the molecule itself
# Experiment: SEC
row,Protein,stoichiometry N
1,B1,3
2,B2,3
